According to PMC7094522:

Molecular target: Fluorogenic peptide Dabcyl-…-Edans, EV71 polyprotein autoprocessing site between 3B and 3C (human enterovirus 71)

Work on EV71 3C protease mutant H133G (enzyme) yielded a Km of cleavage of the fluorogenic 3B-3C peptide (protease assay, 4 μM protease) of 25.9 µM.
